The numbers were not newly measured in PMC7561359, which cites them from elsewhere.

For the data set, the target named is IFNAR1 (Homo sapiens) (UniProt P17181).
UniProt P17181, sequence (P17181 28-436): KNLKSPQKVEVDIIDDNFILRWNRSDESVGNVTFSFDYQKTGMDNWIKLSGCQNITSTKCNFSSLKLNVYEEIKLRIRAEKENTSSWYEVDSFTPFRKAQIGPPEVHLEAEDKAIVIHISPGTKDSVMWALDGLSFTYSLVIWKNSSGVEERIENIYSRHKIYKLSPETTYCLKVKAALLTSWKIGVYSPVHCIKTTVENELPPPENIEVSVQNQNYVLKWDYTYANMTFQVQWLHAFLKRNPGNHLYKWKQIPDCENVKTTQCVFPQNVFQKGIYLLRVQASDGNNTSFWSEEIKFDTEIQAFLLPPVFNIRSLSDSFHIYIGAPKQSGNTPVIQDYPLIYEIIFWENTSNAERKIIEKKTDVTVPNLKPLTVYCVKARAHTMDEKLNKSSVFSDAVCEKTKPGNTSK

Take IFNβ (from UniProt P01574): the Kd is 100 nM.
